For one molecule, stoichiometry N results are on record in article PMC8423358.

The assay deals with DPP9, short isoform (DPP9S), co-expressed with CARD8 for cryo-EM, Q86TI2. In words: cryo-EM structure. Particulars: remark: other sources report otherwise.

B1: DPP9, short isoform (DPP9S), co-expressed with CARD8 for cryo-EM, Q86TI2-1 1-863 (enzyme)
chain: MATTGTPTADRGDAAATDDPAARFQVQKHSWDGLRSIIHGSRKYSGLIVNKAPHDFQFVQKTDESGPHSHRLYYLGMPYGSRENSLLYSEIPKKVRKEALLLLSWKQMLDHFQATPHHGVYSREEELLRERKRLGVFGITSYDFHSESGLFLFQASNSLFHCRDGGKNGFMVSPMKPLEIKTQCSGPRMDPKICPADPAFFSFINNSDLWVANIETGEERRLTFCHQGLSNVLDDPKSAGVATFVIQEEFDRFTGYWWCPTASWEGSEGLKTLRILYEEVDESEVEVIHVPSPALEERKTDSYRYPRTGSKNPKIALKLAEFQTDSQGKIVSTQEKELVQPFSSLFPKVEYIARAGWTRDGKYAWAMFLDRPQQWLQLVLLPPALFIPSTENEEQRLASARAVPRNVQPYVVYEEVTNVWINVHDIFYPFPQSEGEDELCFLRANECKTGFCHLYKVTAVLKSQGYDWSEPFSPGEDEFKCPIKEEIALTSGEWEVLARHGSKIWVNEETKLVYFQGTKDTPLEHHLYVVSYEAAGEIVRLTTPGFSHSCSMSQNFDMFVSHYSSVSTPPCVHVYKLSGPDDDPLHKQPRFWASMMEAASCPPDYVPPEIFHFHTRSDVRLYGMIYKPHALQPGKKHPTVLFVYGGPQVQLVNNSFKGIKYLRLNTLASLGYAVVVIDGRGSCQRGLRFEGALKNQMGQVEIEDQVEGLQFVAEKYGFIDLSRVAIHGWSYGGFLSLMGLIHKPQVFKVAIAGAPVTVWMAYDTGYTERYMDVPENNQHGYEAGSVALHVEKLPNEPNRLLILHGFLDENVHFFHTNFLVSQLIRAGKPYQLQIYPNERHSIRCPESGEHYEVTLLHFLQEYL
What is called stoichiometry N is a count of units in the complex or per binding partner. The molecule B1 displayed a stoichiometry N of 2.
